{
  "source": "patent US20210340209A1",
  "about": "(IMMUNE TARGETING, published 2021)",
  "binders": {"B1": {"name": "human IL-2R beta (receptor)", "chain": "AVNGTSQFTCFYNSRANISCVWSQDGALQDTSCQVHAWPDRRRWNQTCELLPVSQASWACNLILGAPDSQKLTTVDIVTLRVLCREGVRWRVMAIQDFKPFENLRLMAPISLQVVHVETHRCNISWEISQASHYFERHLEFEARTLSPGHTWEEAPLLTLKQKQEWICLETLTPDTQYEFQVRVKPLQGEFTTWSPWSQPLAFRTKPAALGKDT", "notes": "Soluble IL-2R beta reagent, titrated on yeast and used in ELISA; also called IL-2 receptor beta"}},
  "molecular_target": "T1, human IL-2 mutant V1 (human, UniProt P60568 21-153)",
  "T1 construct": "Mutein found by yeast surface display screen; the ELISA format (any tag or Fc) is not described; also called IL-2 mutein",
  "T1 chain": "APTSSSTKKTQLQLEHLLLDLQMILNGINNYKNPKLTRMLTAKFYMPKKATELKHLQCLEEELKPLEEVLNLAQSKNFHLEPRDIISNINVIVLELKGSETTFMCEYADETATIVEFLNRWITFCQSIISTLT",
  "experiment": "ELISA",
  "data": [
    {"binder": "B1", "values": [
      {"measurement": "fold stronger binding than to IL-2 WT", "result": "~20", "unit": "times"}
    ]}
  ]
}
